This is an account of results in publication PMC4176350, “A high security double lock and key mechanism in HUH relaxases controls oriT-processing for plasmid conjugation”.

The series concerns the target T1, TrwCR (TrwC relaxase domain, TrwC-N293) (Escherichia coli? (plasmid R388), UniProt Q47673 1-293).
T1 sequence: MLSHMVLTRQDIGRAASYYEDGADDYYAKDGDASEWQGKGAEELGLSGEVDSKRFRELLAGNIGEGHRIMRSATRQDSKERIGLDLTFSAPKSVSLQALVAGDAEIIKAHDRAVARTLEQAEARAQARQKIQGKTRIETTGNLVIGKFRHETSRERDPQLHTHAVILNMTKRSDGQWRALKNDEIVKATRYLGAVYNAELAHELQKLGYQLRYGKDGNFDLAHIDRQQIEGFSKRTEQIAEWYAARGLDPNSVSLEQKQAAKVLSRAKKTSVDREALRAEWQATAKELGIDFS
In words: X-ray crystallography; 1:1.5 protein:DNA; Crystallization: TrwCR 6 mg/ml in 200 mM NaCl, 20 mM Tris-HCl pH 7.5, 1 mM DTT, 0.5 mM EDTA; reservoir 2 M ammonium phosphate, 0.1 M Tris-HCl pH 8.5, 22 C. The note with it: protein: recombinant; hairpin with 3' single-stranded tail.

GCACCGAAAGGTGCGTATTCTTGGT (structured_DNA) [RIV(23+2), nic mutant IV]: the binding result is reported as “binds”.
